As usually defined, the Kd is a measure of binding affinity in units of concentration. High values mean a looser complex, low ones a tighter complex. By koff is commonly meant a measure of how fast the partners let go of each other. Higher therefore signals fast dissociation. What is called kon is a measure of how fast the partners come together. Lower therefore signals slower complex formation.

Sequences and labels used below:
T1: human CD27 fused to human Fc domain (human, UniProt P26842 21-192, limits assumed)
T1 construct: bought reagent; also called CD27-Fc; CD27Fc
T1 sequence (looked up): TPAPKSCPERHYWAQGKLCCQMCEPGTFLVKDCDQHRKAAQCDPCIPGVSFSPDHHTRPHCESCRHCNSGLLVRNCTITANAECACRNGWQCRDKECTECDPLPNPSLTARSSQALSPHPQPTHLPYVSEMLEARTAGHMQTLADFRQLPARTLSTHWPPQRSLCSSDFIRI

T2: CD70 on cells (CHO-CD70, JVM-3, U266, Raji, THP-1, T cells) (human, UniProt P32970 1-193)
T2 construct: whole, on cells; also called cell-surface CD70
T2 sequence (looked up): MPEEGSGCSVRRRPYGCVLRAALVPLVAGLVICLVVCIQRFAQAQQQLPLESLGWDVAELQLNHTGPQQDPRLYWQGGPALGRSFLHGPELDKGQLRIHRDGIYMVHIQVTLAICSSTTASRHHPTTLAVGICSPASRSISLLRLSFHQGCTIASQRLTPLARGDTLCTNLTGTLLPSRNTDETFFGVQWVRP

T3: CD70 (UniProt P32970 39-193, limits assumed)
T3 construct: also called CD70 (100 nM)
T3 sequence (looked up): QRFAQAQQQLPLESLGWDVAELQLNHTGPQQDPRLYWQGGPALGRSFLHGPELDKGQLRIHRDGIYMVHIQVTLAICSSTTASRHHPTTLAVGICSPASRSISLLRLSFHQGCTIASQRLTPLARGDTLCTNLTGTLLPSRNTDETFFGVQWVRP

B1: human CD70, recombinant, N-terminally biotinylated (residues 39-193) (ligand, UniProt P32970 39-193, looked up)
chain: T3 sequence (looked up)
modifications: N-terminal biotin
notes: range 39-193; the same entry is used there; also called biotinylated human CD70; CD70 biotin
B2: R3P5A1 VHH (VHH)
VHH: QVQLQESGGGLVQPGGSLRLSCTASGSIFSATRMEWYRQAPGKQRELVAIVTSGGRTNYADSVNGRFTISRDNAKNTLYLQMNNLKPEDTAVYYCKFERYDYVNYWGRGTQVTVSS
notes: tested as VHH-His
B3: R3P3H12 VHH (VHH)
VHH: QVQLQESGGGLVQTGGSLRLSCTASGSIFDIVRGSWYRQAPGNQRELVAIITSGGATNYADSVAGRFTISRDSAWKALYLQMNSLKPEDTAVYFCNMESVRYRNYWGQGTQVTVSS
notes: tested as VHH-His
B4: R3aP9D10 VHH (VHH)
VHH: QVQLQESGGGLVQAGGSLRLSCAAPGFTFDAYAIGWFRQAPGKEREGVICLSPSDGSTYYADSVKGRFTISSDNAKNTVYLQMNSLKPEDTAVYYCATPSWCSLKADFGSWGQGTQVTVSS
notes: tested as VHH-His
B5: R3P2G8 VHH (VHH)
VHH: QVQLQESGGGLVQTGGSLRLSCTASGSIFDIARGNWYRQAPGKQRELVAIITSGGATNYADSVAGRFTISRDDAKNTVYLQMNGLKPEDTAVYFCNMESLSYRHYWGQGTQVTVSS
notes: tested as VHH-His
B6: 4G7 (4G7E8) (antibody, V domains shown)
VH: QVQLVESGGGVVQPGRSLRLSCAASGFTFSSYGLHWVRQAPGKGLDWVAVIWYDGSNKYYVDSVKGRFTISRDNSMNTLFLQMNSLRAEDTAVYYCARDEAAAAGAFDIWGQGTMVTVSS
VL: DIQLTQSPSFLSASVGDRVTITCRASQGISSYLAWYQQKPGKAPKLLIYAASTLQSGVPSRFSGSGSGTEFTLTISSLQPEDFATYYCQQLNYYSITFGQGTRLEIK
notes: IgG in hybridoma supernatant; The variable domains exist only inside scFv entries 1213/1214
B7: 9A1 (9A1H6) (antibody, V domains shown)
VH: QVQLVQSGAEVKKPGASVKVSCKASGYSFTGYYMHWVRQAPGQGLEWMGWINPKSGGTSYAQQFQGRVTMTRDTSMSTVYMELTRLRADDTAVYYCARLYYSGWYGDYWGQGTLVTVSS
VL: DIQMTQSPSSLSASVGDRVTITCQASQDINNYLNWYQQKPGKVPNLLIYDASNLETGVPSRFSGSGSGTDFTFTISSLQPEDIATYYCQQYNNPPITFGQGTRLEIK
notes: IgG in hybridoma supernatant
B8: 2F1 (2F1F7) (antibody, V domains shown)
VH: EVQLVESGGVVVQPGGSLRLSCAASGFTFDDYTMHWVRQAPGKGLEWVSLVSWDGGSTYYADSVKGRFTTSRDNSKKFLYLQMNRLRTEDTALYFCAIDRAYRPYYYYHMDVWGKGTTVTVSS
VL: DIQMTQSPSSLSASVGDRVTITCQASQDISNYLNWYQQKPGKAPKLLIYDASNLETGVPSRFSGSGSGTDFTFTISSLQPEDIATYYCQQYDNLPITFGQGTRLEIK
notes: IgG in hybridoma supernatant; The variable domains exist only inside scFv entries 1215/1216
B9: 1E3 (1E3D9) (antibody, V domains shown)
VH: QLQLQESGPGLVKPSETLSLTCTVSGASITSTSYYWNWIRQPPGKGLEWIGRISYSGSTYYNPSLKSRVTISVDTSKNQFSLKLSSVTATDTAVYYCARQIRYNWNPDTFDIWGQGTMVTVSS
VL: EIVMTQSPATLSVSPGERATLSCRASQSLNSNLAWYQQKPAQAPRLLIYGASTRATGIPARFSGSGSGTEFTLTISSLQSEDFAVYYCQQYDNWPLTFGGGTKVEIK
notes: IgG in hybridoma supernatant
B10: 15F8 (15F8D8) (antibody, V domains shown)
VH: EVQLVESGGGVVRPGGSLRLSCAASGFTFDDYGVSWVRQAPGRGLEWVSGINWNGGSTAYADSVKGRFTISRDSAKNSLYLQMDSLRAEDTALYYCAREEGSYYVWYFDIWGRGTLVTVSS
VL: DIQMTQSPSSLSASVGDRVTITCRPSQSISNYLNWYQQKPGKAPKVLIYASFILQSGVPSRFGGSGSGTDFTLTISSLQPEDFATYYCQQSYSNPFTFGPGTKVDIK
notes: IgG in hybridoma supernatant; also called 15F8D9
B11: R3aP4D6 VHH (VHH)
VHH: QVQLQESGGGLVQAGGSLRLSCAASKSIIRDNVMAWHRQAPGKQRELVAIINTGGSANVDDSVKGRFTISRDNAKNMVYLQMNNLKPEDTAVYYCNVYYRDLWGQGTQVTVSS
B12: R3P15F6 VHH (VHH)
VHH: QVQLQESGGGLVQPGGSLRLSCVASGFTLDKYAIGWFRQAPGKELEGVSCITSSSGVVKYADSVKGRFIISRDNTNNRAFLQMSSLKPEDTAVYYCAAAGPPDDCSVPGYYGLNYWGKGTQVTVSS
B13: R2P14A12 VHH (VHH)
VHH: QVQLQESGGGLVQPGGSLRLSCVASGFTLDRYAVGWFRQAPGKELEGVSCISSSGDIIKYADSAKGRFTIARDNAKNTAYLQMNSLKPEDTAVYYCTAADPKDDCSVPGYYGLNYWGKGTQVTVSS
notes: tested as VHH-His

The first test has as its target T1, human CD27 fused to human Fc domain. The experiment in a line: BLI, biotinylated CD70 on streptavidin sensors, 400 nM analyte. As to the method:
(§1) Bio-layer interferometry was used to measure the binding affinity of CD70 to CD70-targeted antibodies 41D12, R3P3H12, R3P5A1, R3aP3E8, and R3aP9D10, and human CD27 fused to human Fc domain (CD27-Fc; Acro Biosystems cat. CD7-h5254). […] Following CD70 immobilization, biosensors were immersed in Octet Buffer to remove unbound, biotinylated CD70 and to establish a flat baseline sensor signal. CD70-loaded Biosensors were then transferred to Octet buffer containing 400 nM of CD27-Fc or αCD70 antibody and association was monitored for 5 minutes at 30° C. whilst agitating at 1,000 RPM. An scFv fragment derived from humanized llama αCD70 antibody 41D12 and fused to human Fc (41D12-Fc) served as a positive control for CD70 binding and an αLysozyme single-domain camelid antibody (clone D2-L19) was used as a negative control. CD27-Fc or αCD70 antibody dissociation was initiated by transferring sensors to Octet buffer and monitored for 5 minutes. Data were analyzed using ForteBio Data Analysis Suite 9.0. The observed association (kₒₙ) and dissociation (koff) rates for the binding of single-domain antibodies to CD70 were determined using a 1:1 curve fitting model to obtain, in all cases, R²≥0.95. Values of the equilibrium dissociation constant for binding to CD70, KD, were determined from the ratio of koff and kₒₙ.
Background: In BLI a coated tip is dipped into the sample, and binding shifts an interference pattern.
B1: the binding result is “binds”.

In a further test the target is B1. Described as above. As to the method:
as §1
For B2, the binding result was “binds”.
On the same count and under the same terms, for B3 the value was “binds”; for B4, “binds”.

The target of another test is T2, CD70 on cells (CHO-CD70, JVM-3, U266, …). Nature of the test: cell ELISA, about 500 nM VHH-His, anti-His-HRP. As to the method:
A cell binding ELISA was carried out to determine whether the anti-CD70 VHHs could recognize the antigen on cells. ˜500 nM each VHH-his was diluted in blocking buffer (PBS+0.01% Tween20+2% non-fat dry milk) and added to wells containing 100,000-200,000 pre-blocked CHO-CD70 cells (high CD70 expression), JVM3 cells (medium-low CD70 expression), wild type CHO cells (negative control), HL60 cells (negative control). The plate was incubated for 1 hour at room temperature with agitation. After incubation cells were washed 3 times by spinning down and dumping of the supernatant followed by addition of PBST. Subsequently, secondary antibody was applied (anti-His-HRP) and the mixture incubated for 30 minutes. After 3 more washes TMB substrate was applied to the plates and the reaction was allowed to proceed for 1-5 minutes before 1M HCl was applied as a stop solution. Immediately following application of the stop solution the absorbance at 450 nm (OD₄₅₀) of each well was measured on a spectrophotometer.
With B5, the binding result is reported as “binds”.

In another test the target is T3, CD70. Nature of the test: Octet (BLI); mAb binding to CD70 with CD27 (competitor CD27).
As for B6, the “CD27:CD70 Interaction Neutralization of mAb Binding” value came to 0.0429.
Same read-out and setting: next, B7: 0.0553.
Still for that read-out and setting: for B8 the value was 0.0275.
On the same count and under the same terms, next, B9: 0.102; B10: 0.0349.

A further test addresses T2, CD70 on cells (CHO-CD70, JVM-3, U266, …). Nature of the test: binding to CD70-expressing CHO cells with and without CD27-Fc. A digest of the protocol: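 Anti-CD70 antibodies and CD27-Fc were applied to CHO cells with CD70 attached to the cell surface, in four set-ups. Each was applied alone; antibody was premixed with CD27-Fc; or cells were first coated with CD27-Fc or with antibody, washed, and then given the mixture. The binding signal was then measured in each set-up.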
For B11, the binding result is listed as “binds”.
On the same count and under the same terms, next, B2: “binds”; B12: “binds”; B3: “binds”.
With B4, the binding result is recorded as “binds”.
On the same count and under the same terms, for B13 the value was “binds”.

For another test, the target named is T3, CD70. Nature of the test: Octet (BLI); hybridoma mAb, CD70 at 100 nM.
B6: the affinity, expressed as Kd, was 1280 pM; the Response was determined as 0.357; the off-rate (koff) is 0.000167 s⁻¹; the kon stood at 130000 M⁻¹ s⁻¹.
The like results for B7 were, in that order, 6.03 pM, 0.434, 5.28e-07 s⁻¹ and 87500 M⁻¹ s⁻¹.
The like results for B8 were, in that order, 6600 pM, 0.698, 0.000555 s⁻¹ and 84100 M⁻¹ s⁻¹.
For B9, in that order: 255 pM, 0.506, 3.88e-05 s⁻¹ and 152000 M⁻¹ s⁻¹.
In turn, B10 showed a Kd of 4.81 pM, a Response of 0.382, a koff of 3.36e-07 s⁻¹ and an association rate constant (kon) of 69800 M⁻¹ s⁻¹.

These data come from patent publication US20240252641A1 (TCR2 THERAPEUTICS, published 2024).
